This note sets out measurements from PMC12126530.

Test [1] has as its target Full-length Hsc70-T204A (ATPase deficient mutant) (human) (UniProt P11142). Put plainly: NMR 15N-CPMG relaxation dispersion and exchange-induced shifts; 15N-labelled JDP observed, unlabelled Hsc70-T204A added to a molar ratio of 0.1 (DNAJB6 JD-GF 200 uM, DNAJB6 JD 350 uM, DNAJB1 300 uM); 25 °C; 20 mM HEPES pH 7.0, 50 mM KCl, 2.5 mM MgCl2; ATP-regenerating system with 2.5 mM ATP; fit to a two-state binding model.

Test [2] shares this target. The test can be described thus: NMR 15N-CPMG relaxation dispersion with exchange-induced shifts; 15N-labelled JDP (DNAJB6 JD-GF 200 μM, DNAJB6 JD 350 μM, DNAJB1 300 μM) with unlabelled Hsc70-T204A at a molar ratio of 0.1, ATP-regenerating system, 20 mM HEPES pH 7.0, 50 mM KCl, 2.5 mM MgCl2, 25 °C, 600, 800 and 950 MHz; fit to a 2-state model; kex = kon app + koff.

Full-length Hsc70-T204A (ATPase deficient mutant) (human), sequence (P11142 whole entry T204A): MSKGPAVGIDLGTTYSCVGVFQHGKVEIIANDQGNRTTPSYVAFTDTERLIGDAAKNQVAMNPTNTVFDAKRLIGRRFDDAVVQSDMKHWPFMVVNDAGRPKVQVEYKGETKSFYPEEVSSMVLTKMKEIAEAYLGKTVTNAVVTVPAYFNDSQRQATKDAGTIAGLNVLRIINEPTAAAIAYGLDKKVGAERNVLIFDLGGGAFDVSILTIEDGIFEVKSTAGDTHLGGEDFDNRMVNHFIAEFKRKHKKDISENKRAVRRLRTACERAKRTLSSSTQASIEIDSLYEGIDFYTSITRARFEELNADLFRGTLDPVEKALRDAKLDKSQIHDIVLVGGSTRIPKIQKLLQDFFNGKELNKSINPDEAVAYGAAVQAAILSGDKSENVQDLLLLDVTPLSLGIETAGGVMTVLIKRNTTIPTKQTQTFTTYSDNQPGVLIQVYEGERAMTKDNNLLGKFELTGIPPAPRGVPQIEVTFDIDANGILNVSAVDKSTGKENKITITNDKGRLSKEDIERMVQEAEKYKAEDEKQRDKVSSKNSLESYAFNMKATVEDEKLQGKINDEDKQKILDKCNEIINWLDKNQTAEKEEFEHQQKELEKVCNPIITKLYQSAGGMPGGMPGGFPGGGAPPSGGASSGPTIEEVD

A word on the kon: it is the second-order rate constant of association. A word on the koff: it is the first-order rate constant of dissociation. Turning to “DNAJB6 JD-GF (from UniProt O75190 1-326) (domain or fragment)”, in test [1], the kon turned out to be 1.54e+06 M⁻¹ s⁻¹. Also, in test [2], the Kd came to 380 µM, the kex was 600 s⁻¹ and the koff came out at 580 s⁻¹.
Consider “DNAJB6 JD (from UniProt O75190 1-326) (domain or fragment)”, for which, in test [2], the Kd is 3 µM, the kex came to 3000 s⁻¹ and the koff was found to be 2700 s⁻¹.
